Here are results for 19 molecules from patent publication US20190271021A1.

Like-named read-outs stand apart in the source and are kept apart here.

Experiment [1] deals with human TrkB on CHO cells (CHO-K1-hTrkB/pSRE-Luc) (human) (UniProt Q16620). Description: cell-based or functional assay.
The target is the same in experiment [2]. Description: cell-based or functional assay. The source holds these as a separate data set.

Chain of human TrkB on CHO cells (CHO-K1-hTrkB/pSRE-Luc) (human) (Q16620 32-822): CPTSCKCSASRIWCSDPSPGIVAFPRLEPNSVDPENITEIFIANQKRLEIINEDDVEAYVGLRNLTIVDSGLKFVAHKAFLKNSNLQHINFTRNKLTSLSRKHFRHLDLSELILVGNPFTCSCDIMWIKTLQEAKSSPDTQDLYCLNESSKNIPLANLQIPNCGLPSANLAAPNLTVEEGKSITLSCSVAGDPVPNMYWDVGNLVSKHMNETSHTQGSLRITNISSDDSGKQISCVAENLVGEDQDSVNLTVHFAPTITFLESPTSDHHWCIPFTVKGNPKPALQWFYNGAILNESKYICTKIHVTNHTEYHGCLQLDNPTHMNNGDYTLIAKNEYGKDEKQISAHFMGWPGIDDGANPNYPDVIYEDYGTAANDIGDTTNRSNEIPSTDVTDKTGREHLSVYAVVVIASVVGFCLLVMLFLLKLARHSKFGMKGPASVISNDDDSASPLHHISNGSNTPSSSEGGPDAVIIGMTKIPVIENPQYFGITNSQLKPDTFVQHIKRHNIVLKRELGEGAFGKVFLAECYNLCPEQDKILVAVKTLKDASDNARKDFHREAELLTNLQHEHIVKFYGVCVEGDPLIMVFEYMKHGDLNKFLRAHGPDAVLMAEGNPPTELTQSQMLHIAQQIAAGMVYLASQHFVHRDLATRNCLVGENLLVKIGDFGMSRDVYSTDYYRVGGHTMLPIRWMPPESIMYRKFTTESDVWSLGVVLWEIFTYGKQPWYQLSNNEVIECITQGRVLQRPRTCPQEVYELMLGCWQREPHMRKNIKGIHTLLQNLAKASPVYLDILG

B1: pre-pro(His6-R54A)-BDNF(-RGR) (ligand)
chain: MTILFLTMVISYFGCMKAAPMKEANIHHHHHHAPMKEANIRGQGGLAYPGVRTHGTLESVNGPKAGSAGLTSLADTFEHVIEELLDEDQKVRPNEENNKDADLYTSRVMLSSQVPLEPPLLFLLEEYKNYLDAANMSMRVRRHSDPARRGELSVCDSISEWVTAADKKTAVDMSGGTVTVLEKVPVSKGQLKQYFYETKCNPMGYTKEGCRGIDKRHWNSQCRTTQSYVRALTMDSKKRIGWRFIRIDTSCVCTLTIK
B1 yielded a BDNF activity in TrkBluciferase assay, EC50 [nM] in experiment [1] of 1.2 nM.

B2: pre-pro-BDNF(-RGR)-opsin(L)-His6 (ligand)
chain: APMKEANIRGQGGLAYPGVRTHGTLESVNGPKAGSRGLTSLADTFEHVIEELLDEDQKVRPNEENNKDADLYTSRVMLSSQVPLEPPLLFLLEEYKNYLDAANMSMRVRRHSDPARRGELSVCDSISEWVTAADKKTAVDMSGGTVTVLEKVPVSKGQLKQYFYETKCNPMGYTKEGCRGIDKRHWNSQCRTTQSYVRALTMDSKKRIGWRFIRIDTSCVCTLTIKGSGNGTEGPNFYVPFSNATGVVRHHHHHH
B2: in experiment [1], the BDNF activity in TrkBluciferase assay, EC50 [% or nM] is 555%; the BDNF activity in TrkBluciferase assay, EC50 [nM] was 0.3 nM; the relative BDNF activity in TrkB luciferase assay, EC50 [%] amounted to 10%.

B3: pre-pro-BDNF-T7-His6 (ligand)
chain: APMKEANIRGQGGLAYPGVRTHGTLESVNGPKAGSRGLTSLADTFEHVIEELLDEDQKVRPNEENNKDADLYTSRVMLSSQVPLEPPLLFLLEEYKNYLDAANMSMRVRRHSDPARRGELSVCDSISEWVTAADKKTAVDMSGGTVTVLEKVPVSKGQLKQYFYETKCNPMGYTKEGCRGIDKRHWNSQCRTTQSYVRALTMDSKKRIGWRFIRIDTSCVCTLTIKRGRGSGMASMTGGQQMGHHHHHH
As for B3, in experiment [2], the BDNF activity in TrkBluciferase assay, EC50 [nM] was 3 nM.

B4: pre-pro-BDNF(-RGR; G62N, Y63G, Q79T)-T7-His6 (ligand)
chain: APMKEANIRGQGGLAYPGVRTHGTLESVNGPKAGSRGLTSLADTFEHVIEELLDEDQKVRPNEENNKDADLYTSRVMLSSQVPLEPPLLFLLEEYKNYLDAANMSMRVRRHSDPARRGELSVCDSISEWVTAADKKTAVDMSGGTVTVLEKVPVSKGQLKQYFYETKCNPMNGTKEGCRGIDKRHWNSTCRTTQSYVRALTMDSKKRIGWRFIRIDTSCVCTLTIKGSGMASMTGGQQMGHHHHHH
Take B4: the BDNF activity in TrkBluciferase assay, EC50 [% or nM] in experiment [1] is 0.13 nM.

B5: pre-pro-BDNF(-RGR; T35N, Q79T)-T7-His6 (ligand)
chain: APMKEANIRGQGGLAYPGVRTHGTLESVNGPKAGSRGLTSLADTFEHVIEELLDEDQKVRPNEENNKDADLYTSRVMLSSQVPLEPPLLFLLEEYKNYLDAANMSMRVRRHSDPARRGELSVCDSISEWVTAADKKTAVDMSGGNVTVLEKVPVSKGQLKQYFYETKCNPMGYTKEGCRGIDKRHWNSTCRTTQSYVRALTMDSKKRIGWRFIRIDTSCVCTLTIKGSGMASMTGGQQMGHHHHHH
Turning to B5, the BDNF activity in TrkBluciferase assay, EC50 [% or nM] in experiment [1] amounted to 0.064 nM.

B6: pre-pro-BDNF(-RGR; Q79S)-T7-His6 (ligand)
chain: APMKEANIRGQGGLAYPGVRTHGTLESVNGPKAGSRGLTSLADTFEHVIEELLDEDQKVRPNEENNKDADLYTSRVMLSSQVPLEPPLLFLLEEYKNYLDAANMSMRVRRHSDPARRGELSVCDSISEWVTAADKKTAVDMSGGTVTVLEKVPVSKGQLKQYFYETKCNPMGYTKEGCRGIDKRHWNSSCRTTQSYVRALTMDSKKRIGWRFIRIDTSCVCTLTIKGSGMASMTGGQQMGHHHHHH
On to B6, for which the BDNF activity in TrkBluciferase assay, EC50 [nM] in experiment [1] was 6.9 nM.

B7: pre-pro-BDNF(-RGR; G62N, Y63G, R81N)-T7-His6 (ligand)
chain: APMKEANIRGQGGLAYPGVRTHGTLESVNGPKAGSRGLTSLADTFEHVIEELLDEDQKVRPNEENNKDADLYTSRVMLSSQVPLEPPLLFLLEEYKNYLDAANMSMRVRRHSDPARRGELSVCDSISEWVTAADKKTAVDMSGGTVTVLEKVPVSKGQLKQYFYETKCNPMNGTKEGCRGIDKRHWNSQCNTTQSYVRALTMDSKKRIGWRFIRIDTSCVCTLTIKGSGMASMTGGQQMGHHHHHH
In the case of B7, the BDNF activity in TrkBluciferase assay, EC50 [% or nM] in experiment [1] came to 203%.

B8: pre-pro-BDNF(-RGR; K25N, Q79T)-T7-His6 (ligand)
chain: APMKEANIRGQGGLAYPGVRTHGTLESVNGPKAGSRGLTSLADTFEHVIEELLDEDQKVRPNEENNKDADLYTSRVMLSSQVPLEPPLLFLLEEYKNYLDAANMSMRVRRHSDPARRGELSVCDSISEWVTAADNKTAVDMSGGTVTVLEKVPVSKGQLKQYFYETKCNPMGYTKEGCRGIDKRHWNSTCRTTQSYVRALTMDSKKRIGWRFIRIDTSCVCTLTIKGSGMASMTGGQQMGHHHHHH
As to B8, the BDNF activity in TrkBluciferase assay, EC50 [% or nM] in experiment [1] amounted to 0.21 nM.

B9: pre-pro-BDNF(-RGR; T35N; G62N; Y63G)-T7-His6 (ligand)
chain: APMKEANIRGQGGLAYPGVRTHGTLESVNGPKAGSRGLTSLADTFEHVIEELLDEDQKVRPNEENNKDADLYTSRVMLSSQVPLEPPLLFLLEEYKNYLDAANMSMRVRRHSDPARRGELSVCDSISEWVTAADKKTAVDMSGGNVTVLEKVPVSKGQLKQYFYETKCNPMNGTKEGCRGIDKRHWNSQCRTTQSYVRALTMDSKKRIGWRFIRIDTSCVCTLTIKGSGMASMTGGQQMGHHHHHH
Take B9: the BDNF activity in TrkBluciferase assay, EC50 [% or nM] in experiment [1] was 0.039 nM.

B10: pre-pro-BDNF(-RGR; R81N)-T7-His6 (ligand)
chain: APMKEANIRGQGGLAYPGVRTHGTLESVNGPKAGSRGLTSLADTFEHVIEELLDEDQKVRPNEENNKDADLYTSRVMLSSQVPLEPPLLFLLEEYKNYLDAANMSMRVRRHSDPARRGELSVCDSISEWVTAADKKTAVDMSGGTVTVLEKVPVSKGQLKQYFYETKCNPMGYTKEGCRGIDKRHWNSQCNTTQSYVRALTMDSKKRIGWRFIRIDTSCVCTLTIKGSGMASMTGGQQMGHHHHHH
modifications: N-glycan at the introduced site (degree of glycosylation ++)
The molecule B10 gave a BDNF activity in TrkBluciferase assay, EC50 [nM] in experiment [1] of 0.8 nM.

B11: pre-pro-BDNF(-RGR; T35N, G62N, Y63G, Q79T)-T7-His6 (ligand)
chain: APMKEANIRGQGGLAYPGVRTHGTLESVNGPKAGSRGLTSLADTFEHVIEELLDEDQKVRPNEENNKDADLYTSRVMLSSQVPLEPPLLFLLEEYKNYLDAANMSMRVRRHSDPARRGELSVCDSISEWVTAADKKTAVDMSGGNVTVLEKVPVSKGQLKQYFYETKCNPMNGTKEGCRGIDKRHWNSTCRTTQSYVRALTMDSKKRIGWRFIRIDTSCVCTLTIKGSGMASMTGGQQMGHHHHHH
Consider B11, for which, in experiment [1], the BDNF activity in TrkBluciferase assay, EC50 [% or nM] came out at 0.069 nM.

B12: pre-pro-BDNF(-RGR; K25N; G62N; Y63G)-T7-His6 (ligand)
chain: APMKEANIRGQGGLAYPGVRTHGTLESVNGPKAGSRGLTSLADTFEHVIEELLDEDQKVRPNEENNKDADLYTSRVMLSSQVPLEPPLLFLLEEYKNYLDAANMSMRVRRHSDPARRGELSVCDSISEWVTAADNKTAVDMSGGTVTVLEKVPVSKGQLKQYFYETKCNPMNGTKEGCRGIDKRHWNSQCRTTQSYVRALTMDSKKRIGWRFIRIDTSCVCTLTIKGSGMASMTGGQQMGHHHHHH
Take B12: the BDNF activity in TrkBluciferase assay, EC50 [% or nM] in experiment [1] worked out at 276%.

B13: pre-pro-BDNF(-RGR; Q79T, R81N)-T7-His6 (ligand)
chain: APMKEANIRGQGGLAYPGVRTHGTLESVNGPKAGSRGLTSLADTFEHVIEELLDEDQKVRPNEENNKDADLYTSRVMLSSQVPLEPPLLFLLEEYKNYLDAANMSMRVRRHSDPARRGELSVCDSISEWVTAADKKTAVDMSGGTVTVLEKVPVSKGQLKQYFYETKCNPMGYTKEGCRGIDKRHWNSTCNTTQSYVRALTMDSKKRIGWRFIRIDTSCVCTLTIKGSGMASMTGGQQMGHHHHHH
B13: the BDNF activity in TrkBluciferase assay, EC50 [% or nM] in experiment [1] came out at 0.05 nM.

B14: pre-pro(His6-R54A-IgA)-BDNF(-RGR) (ligand)
chain: MTILFLTMVISYFGCMKAAPMKEANIHHHHHHAPMKEANIRGQGGLAYPGVRTHGTLESVNGPKAGSAGLTSLADTFEHVIEELLDEDQKVRPNEENNKDADLYTSRVMLSSQVPLEPPLLFLLEEYKNYLDAANMSMGSVVAPPAPHSDPARRGELSVCDSISEWVTAADKKTAVDMSGGTVTVLEKVPVSKGQLKQYFYETKCNPMGYTKEGCRGIDKRHWNSQCRTTQSYVRALTMDSKKRIGWRFIRIDTSCVCTLTIK
In experiment [1], B14 yielded a BDNF activity in TrkBluciferase assay, EC50 [nM] of 9.6 nM.

B15: pre-pro-BDNF, RGR deleted, GSG, C-terminal His6, R54A, IgA protease cleavage site (row 2 of Table 9) (ligand)
chain: APMKEANIRGQGGLAYPGVRTHGTLESVNGPKAGSAGLTSLADTFEHVIEELLDEDQKVRPNEENNKDADLYTSRVMLSSQVPLEPPLLFLLEEYKNYLDAANMSMGSVVAPPAPHSDPARRGELSVCDSISEWVTAADKKTAVDMSGGTVTVLEKVPVSKGQLKQYFYETKCNPMGYTKEGCRGIDKRHWNSQCRTTQSYVRALTMDSKKRIGWRFIRIDTSCVCTLTIKGSGHHHHHH
On to B15, for which, in experiment [1], the BDNF activity in TrkBluciferase assay, EC50 [nM] came to 9.6 nM.

B16: pre-pro-BDNF(-RGR)-opsin(S)-His6 (ligand)
chain: APMKEANIRGQGGLAYPGVRTHGTLESVNGPKAGSRGLTSLADTFEHVIEELLDEDQKVRPNEENNKDADLYTSRVMLSSQVPLEPPLLFLLEEYKNYLDAANMSMRVRRHSDPARRGELSVCDSISEWVTAADKKTAVDMSGGTVTVLEKVPVSKGQLKQYFYETKCNPMGYTKEGCRGIDKRHWNSQCRTTQSYVRALTMDSKKRIGWRFIRIDTSCVCTLTIKGSGNGTEGPNFYVPFSNATGSGHHHHHH
Turning to B16, the BDNF activity in TrkBluciferase assay, EC50 [nM] in experiment [1] came to 0.3 nM.

B17: pre-pro(R54A)-BDNF(-RGR)-His6 (ligand)
chain: HSDPARRGELSVCDSISEWVTAADKKTAVDMSGGTVTVLEKVPVSKGQLKQYFYETKCNPMGYTKEGCRGIDKRHWNSQCRTTQSYVRALTMDSKKRIGWRFIRIDTSCVCTLTIKGSGHHHHHH
In the case of B17, in experiment [1], the BDNF activity in TrkBluciferase assay, EC50 [nM] was 1.2 nM.

B18: pre-pro(IgA)-BDNF(-RGR)-His6 (ligand)
chain: MTILFLTMVISYFGCMKAAPMKEANIRGQGGLAYPGVRTHGTLESVNGPKAGSRGLTSLADTFEHVIEELLDEDQKVRPNEENNKDADLYTSRVMLSSQVPLEPPLLFLLEEYKNYLDAANMSMGSVVAPPAPHSDPARRGELSVCDSISEWVTAADKKTAVDMSGGTVTVLEKVPVSKGQLKQYFYETKCNPMGYTKEGCRGIDKRHWNSQCRTTQSYVRALTMDSKKRIGWRFIRIDTSCVCTLTIKGSGHHHHHH
With B18, in experiment [1], the BDNF activity in TrkBluciferase assay, EC50 [% or nM] was determined as 282% and the BDNF activity in TrkBluciferase assay, EC50 [nM] is 9.6 nM.

B19: pre-pro-BDNF(-RGR)-opsin(S)-T7-His6 (ligand)
chain: APMKEANIRGQGGLAYPGVRTHGTLESVNGPKAGSRGLTSLADTFEHVIEELLDEDQKVRPNEENNKDADLYTSRVMLSSQVPLEPPLLFLLEEYKNYLDAANMSMRVRRHSDPARRGELSVCDSISEWVTAADKKTAVDMSGGTVTVLEKVPVSKGQLKQYFYETKCNPMGYTKEGCRGIDKRHWNSQCRTTQSYVRALTMDSKKRIGWRFIRIDTSCVCTLTIKGSGNGTEGPNFYVPFSNATGSGMASMTGGQQMGHHHHHH
For the molecule B19, the BDNF activity in TrkBluciferase assay, EC50 [nM] in experiment [1] came to 0.3 nM.
